The values that follow come from PMC6210734, “Unliganded Progesterone Receptor Governs Estrogen Receptor Gene Expression by Regulating DNA Methylation in Breast Cancer Cells”.

Substitutions are numbered along the chain they refer to.

Data set [1] addresses T1, Progesterone receptor isoform B (PR-B) (Homo sapiens, UniProt P06401 1-933). As to the kind of experiment: EMSA; EMSA: 20 min at room temperature, 5% acrylamide-bisacrylamide gel; buffer, salt and pH not stated. Particulars: protein: recombinant; chain copies: 2; (radioactive); blunt.
For data set [2], the target named is T1, Progesterone receptor isoform B (PR-B). As to the kind of experiment: competition; 100-fold unlabeled competitor vs labeled no-CpG PRE, 2.4 ug PR-B; high-affinity competitor; EMSA: 20 min at room temperature, 5% acrylamide-bisacrylamide gel; buffer, salt and pH not stated. Particulars: protein: recombinant; chain copies: 2; (radioactive); blunt.

T1 sequence (P06401 whole entry, canonical isoform): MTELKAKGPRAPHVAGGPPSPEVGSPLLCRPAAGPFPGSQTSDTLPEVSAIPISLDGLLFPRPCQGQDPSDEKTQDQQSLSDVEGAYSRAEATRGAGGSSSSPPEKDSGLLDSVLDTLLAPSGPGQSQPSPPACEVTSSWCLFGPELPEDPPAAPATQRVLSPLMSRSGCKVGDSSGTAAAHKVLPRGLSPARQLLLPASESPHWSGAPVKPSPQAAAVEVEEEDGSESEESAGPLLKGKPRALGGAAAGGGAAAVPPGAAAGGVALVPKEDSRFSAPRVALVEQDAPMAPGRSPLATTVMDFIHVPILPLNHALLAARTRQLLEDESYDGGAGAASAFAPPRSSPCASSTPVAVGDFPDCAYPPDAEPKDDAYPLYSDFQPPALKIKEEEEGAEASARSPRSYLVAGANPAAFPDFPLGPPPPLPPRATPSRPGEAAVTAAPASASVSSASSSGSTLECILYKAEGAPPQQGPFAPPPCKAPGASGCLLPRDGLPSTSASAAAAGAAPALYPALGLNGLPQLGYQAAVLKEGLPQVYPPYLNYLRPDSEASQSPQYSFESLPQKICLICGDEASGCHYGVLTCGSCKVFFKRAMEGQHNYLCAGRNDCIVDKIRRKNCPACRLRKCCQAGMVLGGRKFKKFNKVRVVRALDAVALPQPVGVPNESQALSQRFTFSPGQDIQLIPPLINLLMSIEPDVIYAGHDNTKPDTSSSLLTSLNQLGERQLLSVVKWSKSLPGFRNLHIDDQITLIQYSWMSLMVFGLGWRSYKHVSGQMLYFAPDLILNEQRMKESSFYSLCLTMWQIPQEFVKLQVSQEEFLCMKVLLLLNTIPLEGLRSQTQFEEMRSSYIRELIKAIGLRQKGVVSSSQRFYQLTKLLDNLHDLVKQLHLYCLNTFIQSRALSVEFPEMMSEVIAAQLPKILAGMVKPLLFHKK

B1: PRE no CpG (dsDNA)
DNA 1: GTTGAGTCAGAACAGTTTGTTCTCTAGGCAC
DNA 2: GTGCCTAGAGAACAAACTGTTCTGACTCAAC
For the molecule B1, the binding result in data set [1] was “binds”.

B2: PRE two CpGs, unmethylated (dsDNA)
DNA 1: B1 DNA 1 with A14G, T18C
DNA 2: B1 DNA 2 with A14G, T18C
Take B2: the binding result in data set [2] is recorded as “binds”.
